Measured values taken from article PMC11434081, “Cross-Effects in Folding and Phase Transitions of hnRNP A1 and C9Orf72 RNA G4 In Vitro” (Molecules, 2024).

Biological target: the molecule itself
Assay: thioflavin T fluorescence (fibrillation assay); self-association of the peptide into cross-beta fibrils; 40 µM peptide, 13 µM ThT, 0.5 mM DTT, 40 mM HEPES-KOH pH 7.4, 150 mM KCl or NaCl (methods), room temperature (RGG-PLD^mut-NLS also at 37 °C), at least 3 h

B1: RGG-PLD^mut-NLS (hnRNP A1 aa 218–272, D262V) (peptide)
peptide: RGGNFSGRGGFGGSRGGGGYGGSGDGYNGFGNDGSNFGGGGSYNVFGNYNNQSSN
notes: hnRNP A1, human, residues 218-272 with D262V; Synthesised on an amide resin, so the C-terminus may be amidated; source: synthetic peptide (Fmoc solid phase, RP-HPLC purified)
- reduction of the ThT signal relative to PLD^mut-NLS: 30 ± 10%

B2: RGG-PLD^wt-NLS (hnRNP A1 aa 218–272, wild type) (peptide)
peptide: RGGNFSGRGGFGGSRGGGGYGGSGDGYNGFGNDGSNFGGGGSYNDFGNYNNQSSN
notes: hnRNP A1, human, residues 218-272, wild type; Synthesised on an amide resin, so the C-terminus may be amidated; source: synthetic peptide (Fmoc solid phase, RP-HPLC purified)
- fold lower fibrillation (ThT) than RGG-PLD^mut-NLS: ~2 fold

B3: PLD^mut-NLS (hnRNP A1 aa 234–272, D262V) (peptide)
peptide: GGGYGGSGDGYNGFGNDGSNFGGGGSYNVFGNYNNQSSN
notes: hnRNP A1, human, residues 234-272 with D262V; Synthesised on an amide resin, so the C-terminus may be amidated; source: synthetic peptide (Fmoc solid phase, RP-HPLC purified)
- binding result: binds
